Here are results for 5 molecules from patent publication US20240327516A1 (Zymeworks, published 2024).

The target in test [1] is T1, mesothelin (MSLN) on MSLN-expressing tumor cells (human, UniProt Q13421 296-598).
In test [2] the target is T1, mesothelin (MSLN) on MSLN-expressing …. This is another data set of the same source.
Test [3] shares this target. This is another data set of the same source.
The target is the same in test [4]. Nature of the test: cell-based or functional assay.
The target in test [5] is T2, CD3 on CD3+ Jurkat cells and primary human T cells (human, UniProt P07766 23-207).
T2 construct: whole, on cells; also called native CD3; CD3ε
Description: whole-cell ELISA on CD3+ Jurkat cells, apparent affinity. On the technique in general: ELISA stands for enzyme-linked immunosorbent assay.

In test [6] the target is T2, CD3 on CD3+ Jurkat cells and primary …. Description: flow cytometry on primary human T cells, apparent affinity.
For test [7], the target named is T1, mesothelin (MSLN) on MSLN-expressing …. Description: whole-cell flow cytometry on OVCAR-3 cells, apparent affinity. (Flow cytometry measures light scatter and fluorescence of single cells or particles in a stream.)
Test [8] has as its target T2, CD3 on CD3+ Jurkat cells and primary …. Description: cell ELISA on whole CD3+ Jurkat cells (HRP anti-human IgG Fc, A 450nm).
In test [9] the target is T1, mesothelin (MSLN) on MSLN-expressing …. Nature of the test: flow cytometry on MSLN+ OVCAR-3 cells (Alexa Fluor 647 anti-IgG-Fc, MFI).
Test [10] concerns the target T2, CD3 on CD3+ Jurkat cells and primary …. Nature of the test: flow cytometry on primary human CD4+ T cells (anti-IgG-Fc detection, geo MFI).
The target is the same in test [11]. Nature of the test: flow cytometry on primary human CD8+ T cells (anti-IgG-Fc detection, geo MFI).
For test [12], the target named is T1, mesothelin (MSLN) on MSLN-expressing …. Description: cell-based or functional assay. This is another data set of the same source.
In test [13] the target is MSLN (form in the assay not stated) (UniProt Q13421 296-580). Nature of the test: method and antigen form not stated in Table 12.
Test [14] addresses T2, CD3 on CD3+ Jurkat cells and primary …. Description: whole-cell ELISA on CD3+ Jurkat cells, apparent affinity; main value of the cell, outside the parentheses.
The target is the same in test [15]. Nature of the test: whole-cell flow cytometry on primary human T cells, apparent affinity.

Where two headings read alike, the source gives them in different places.

T1 sequence (Q13421 other isoform, or with tags, fused parts or gaps limits assumed): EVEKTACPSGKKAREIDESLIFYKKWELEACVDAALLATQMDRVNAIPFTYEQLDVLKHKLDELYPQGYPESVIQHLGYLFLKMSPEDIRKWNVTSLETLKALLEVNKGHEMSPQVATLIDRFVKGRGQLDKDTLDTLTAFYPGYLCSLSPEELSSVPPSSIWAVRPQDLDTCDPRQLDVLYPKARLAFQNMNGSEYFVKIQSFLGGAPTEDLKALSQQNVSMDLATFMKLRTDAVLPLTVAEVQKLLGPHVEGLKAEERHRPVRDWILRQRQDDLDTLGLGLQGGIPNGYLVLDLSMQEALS
T2 sequence (P07766 23-207): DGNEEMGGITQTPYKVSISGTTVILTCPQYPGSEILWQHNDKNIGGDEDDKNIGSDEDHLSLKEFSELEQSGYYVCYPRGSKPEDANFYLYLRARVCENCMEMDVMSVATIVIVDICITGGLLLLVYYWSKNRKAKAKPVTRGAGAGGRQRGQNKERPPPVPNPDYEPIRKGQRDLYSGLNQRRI
Sequence of MSLN (form in the assay not stated) (Q13421 other isoform, or with tags, fused parts or gaps limits assumed): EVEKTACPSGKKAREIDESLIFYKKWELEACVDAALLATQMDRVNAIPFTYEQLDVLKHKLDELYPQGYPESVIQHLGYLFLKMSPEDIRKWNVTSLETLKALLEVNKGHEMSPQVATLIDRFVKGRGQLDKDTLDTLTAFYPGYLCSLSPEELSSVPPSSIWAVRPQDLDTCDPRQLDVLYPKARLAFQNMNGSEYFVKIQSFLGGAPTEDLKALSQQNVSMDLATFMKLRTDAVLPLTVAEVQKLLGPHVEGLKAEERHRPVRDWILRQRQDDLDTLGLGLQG

B1: v21815, bivalent and bispecific antibody construct [MSLN (1 Fab) x CD3 (1 scFv)] (bispecific antibody, human IgG1, kappa, L234A L235A)
heavy 1: not shown
heavy 2: QVQLVQSGAEVKKPGASVKVSCKASGYSFTGYTMNWVRQAPGQGLEWMGLITPYNGASSYNQKFRGKATMTVDTSTSTVYMELSSLRSEDTAVYYCARGGYDGRGFDYWGQGTLVTVSSASTKGPSVFPLAPSSKSTSGGTAALGCLVKDYFPEPVTVSWNSGALTSGVHTFPAVLQSSGLYSLSSVVTVPSSSLGTQTYICNVNHKPSNTKVDKKVEPKSCDKTHTCPPCPAPEAAGGPSVFLFPPKPKDTLMISRTPEVTCVVVSVSHEDPEVKFNWYVDGVEVHNAKTKPREEQYNSTYRVVSVLTVLHQDWLNGKEYKCKVSNKALPAPIEKTISKAKGQPREPQVYVLPPSRDELTKNQVSLLCLVKGFYPSDIAVEWESNGQPENNYLTWPPVLDSDGSFFLYSKLTVDKSRWQQGNVFSCSVMHEALHNHYTQKSLSLSPG
light: DIQMTQSPSSLSASVGDRVTITCSASSSVSYMHWYQQKSGKAPKLLIYDTSKLASGVPSRFSGSGSGTDFTLTISSLQPEDFATYYCQQWSGYPLTFGQGTKLEIKRTVAAPSVFIFPPSDEQLKSGTASVVCLLNNFYPREAKVQWKVDNALQSGNSQESVTEQDSKDSTYSLSSTLTLSKADYEKHKVYACEVTHQGLSSPVTKSFNRGEC
notes: also called 1x1 construct; 1+1 anti-CD3 scFv x anti-MSLN Fab construct
In turn, B1 showed a Kd in [1] of approximately 1.73 nM. Besides, the EC50 came out at 1.7 nM in [2], 2.4 nM in test [5], 0.2 nM in test [6] and 6.7 nM in test [7]. In addition, the half-maximal effective concentration (EC50 (read off the curve)) in test [3] was approximately 2 nM; in [8], approximately 2 nM; in [9] it was approximately 7 nM; in test [10], approximately 2 nM; in test [11] it was approximately 2 nM. Besides, the “maximum killing of BxPC3 cells” value in [4] was found to be 35%.

B2: v18490, anti-MSLN antibody (mAb, MSLN (SS) Fab x 2) (antibody, human IgG1, kappa, L234A L235A)
heavy 1: QVQLVQSGAEVKKPGASVKVSCKASGYSFTGYTMNWVRQAPGQGLEWMGLITPYNGASSYNQKFRGKATMTVDTSTSTVYMELSSLRSEDTAVYYCARGGYDGRGFDYWGQGTLVTVSSASTKGPSVFPLAPSSKSTSGGTAALGCLVKDYFPEPVTVSWNSGALTSGVHTFPAVLQSSGLYSLSSVVTVPSSSLGTQTYICNVNHKPSNTKVDKKVEPKSCDKTHTCPPCPAPEAAGGPSVFLFPPKPKDTLMISRTPEVTCVVVSVSHEDPEVKFNWYVDGVEVHNAKTKPREEQYNSTYRVVSVLTVLHQDWLNGKEYKCKVSNKALPAPIEKTISKAKGQPREPQVYVLPPSRDELTKNQVSLLCLVKGFYPSDIAVEWESNGQPENNYLTWPPVLDSDGSFFLYSKLTVDKSRWQQGNVFSCSVMHEALHNHYTQKSLSLSPG
heavy 2: not shown
light: DIQMTQSPSSLSASVGDRVTITCSASSSVSYMHWYQQKSGKAPKLLIYDTSKLASGVPSRFSGSGSGTDFTLTISSLQPEDFATYYCQQWSGYPLTFGQGTKLEIKRTVAAPSVFIFPPSDEQLKSGTASVVCLLNNFYPREAKVQWKVDNALQSGNSQESVTEQDSKDSTYSLSSTLTLSKADYEKHKVYACEVTHQGLSSPVTKSFNRGEC
As for B2, the 50% effective concentration (EC50) in test [2] was found to be 1.6 nM.

B3: v29048, trivalent and bispecific antibody construct [MSLN (2 scFv) x CD3 (1 Fab)] (bispecific antibody, human IgG1, lambda, L234A L235A)
heavy 1: not shown
heavy 2: EVQLLESGGGLVQPGGSVRISCAASGYSFTGYTMNWVRQAPGKGLEWIGLITPYSGASSYADSFKGRATLSVDNSKNTAYMQLNSLRAEDTAVYYCARGGYDGRGFDYWGQGTLVTVSSGGGGSGGGGSGGGGSDIQLTQSPSSLSASVGDRVTMTCSASSSVSYMHWYQQKPGKAPKLWIYDTSKLASGVPSRFSGSGSGTDYTLTISSVQPEDFATYYCQQWSKHPLTFGQGTKVEIKAAEPKSSDKTHTCPPCPAPEAAGGPSVFLFPPKPKDTLMISRTPEVTCVVVSVSHEDPEVKFNWYVDGVEVHNAKTKPREEQYNSTYRVVSVLTVLHQDWLNGKEYKCKVSNKALPAPIEKTISKAKGQPREPQVYVLPPSRDELTKNQVSLLCLVKGFYPSDIAVEWESNGQPENNYLTWPPVLDSDGSFFLYSKLTVDKSRWQQGNVFSCSVMHEALHNHYTQKSLSLSPG
light: NFMLTQPHSVSESPGKTVTISCKRNTGNIGSNYVNWYQQHEGSSPTTIIYRNDKRPDGVSDRFSGSIDRSSKSASLTISNLKTEDEADYFCQSYSSGFIFGGGTKLTVLGQPKAAPSVTLFPPSSEELQANKATLVCLISDFYPGAVTVAWKADSSPVKAGVETTTPSKQSNNKYAASSYLSLTPEQWKSHRSYSCQVTHEGSTVEKTVAPTECS
For B3, the EC50 turned out to be 0.5 nM in [2], 183 nM in [6] and 5.5 nM in test [14]. In test [12], the “IC50 of T cell-dependent cytotoxicity on OVCAR-3 cells (pan T cells, E:T 5:1, 72 h)” value worked out at 0.0004 nM. The “Affinity to MSln” value in test [13] was 9.8 nM.

B4: v31926, negative control antibody [Hemagglutinin (HA) (2 scFv) x CD3 (1 Fab)] (bispecific antibody)
heavy 1: not shown
heavy 2: QVQLVQSGAEVKKPGASVRVSCRASGYIFTESGITWVRQAPGQGLEWMGWISGYSGDTKYAQKLQGRVTMTKDTSTTTAYMELRSLRYDDTAVYYCARDVQYSGSYLGAYYFDYWSPGTLVTVSSGGGGSGGGGSGGGGSGGGQSVLTQPPSASGTPGQRVTISCSGSSSNIGTNYVYWYQQFPGTAPKLLIYRSYQRPSGVPDRFSGSKSGSSASLAISGLQSEDEADYYCATWDDSLDGWVFGGGTKLTVLAAEPKSSDKTHTCPPCPAPEAAGGPSVFLFPPKPKDTLMISRTPEVTCVVVSVSHEDPEVKFNWYVDGVEVHNAKTKPREEQYNSTYRVVSVLTVLHQDWLNGKEYKCKVSNKALPAPIEKTISKAKGQPREPQVYVLPPSRDELTKNQVSLLCLVKGFYPSDIAVEWESNGQPENNYLTWPPVLDSDGSFFLYSKLTVDKSRWQQGNVFSCSVMHEALHNHYTQKSLSLSPG
light: NFMLTQPHSVSESPGKTVTISCKRNTGNIGSNYVNWYQQHEGSSPTTIIYRNDKRPDGVSDRFSGSIDRSSKSASLTISNLKTEDEADYFCQSYSSGFIFGGGTKLTVLGQPKAAPSVTLFPPSSEELQANKATLVCLISDFYPGAVTVAWKADSSPVKAGVETTTPSKQSNNKYAASSYLSLTPEQWKSHRSYSCQVTHEGSTVEKTVAPTECS
Take B4: in test [15], the EC50 turned out to be 102 nM.

B5: v29045, trivalent and bispecific antibody construct [MSLN (2 scFv) x CD3 (1 Fab)] (bispecific antibody, human IgG1, lambda, L234A L235A)
heavy 1: not shown
heavy 2: QVQLVQSGAEVKKPGASVKISCKASGYSFTGYTMNWVRQAPGQGLEWIGLITPYSGASSYAQKFQGRATLTVDKSTSTAYMELSSLRSEDTAVYYCARGGYDGRGFDYWGQGTLVTVSSGGGGSGGGGSGGGGSEIVLTQSPATLSLSPGERVTMSCSASSSVSYMHWYQQKPGQAPRLWIYDTSKLASGVPARFSGSGSGTDYTLTISSVEPEDFAVYYCQQWSGYPLTFGQGTKVEIKAAEPKSSDKTHTCPPCPAPEAAGGPSVFLFPPKPKDTLMISRTPEVTCVVVSVSHEDPEVKFNWYVDGVEVHNAKTKPREEQYNSTYRVVSVLTVLHQDWLNGKEYKCKVSNKALPAPIEKTISKAKGQPREPQVYVLPPSRDELTKNQVSLLCLVKGFYPSDIAVEWESNGQPENNYLTWPPVLDSDGSFFLYSKLTVDKSRWQQGNVFSCSVMHEALHNHYTQKSLSLSPG
light: NFMLTQPHSVSESPGKTVTISCKRNTGNIGSNYVNWYQQHEGSSPTTIIYRNDKRPDGVSDRFSGSIDRSSKSASLTISNLKTEDEADYFCQSYSSGFIFGGGTKLTVLGQPKAAPSVTLFPPSSEELQANKATLVCLISDFYPGAVTVAWKADSSPVKAGVETTTPSKQSNNKYAASSYLSLTPEQWKSHRSYSCQVTHEGSTVEKTVAPTECS
In the case of B5, the concentration for a half-maximal effect (EC50) in test [2] came to 0.4 nM; in [5], 1.3 nM. Further, the “IC50 of T cell-dependent cytotoxicity on OVCAR-3 cells (pan T cells, E:T 5:1, 72 h)” value in test [12] turned out to be 0.0272 nM. Moreover, the “Affinity to MSln” value in [13] stood at 62.6 nM.

For orientation: Kd means the equilibrium constant for the complex coming apart. A lower Kd goes with a tighter complex. What is called EC50 is the midpoint of the concentration-response curve. In general, EC50 (read off the curve) refers to the midpoint of the concentration-response curve.
